Results from US11214624 (PRODA BIOTECH, dated 2022).

Experiments:
[1] = target: T1, dynein (endogenous, in SW480 cell extracts) (UniProt O14576 2-645); experiment: co-immunoprecipitation in extracts of scratch-wounded SW480 cells
T1 construct: Multi-subunit motor; also called Dynein intermediate 1

[2] = target: T2, kinesin (endogenous, in SW480 cell extracts) (UniProt P33176 2-963); experiment: as above
T2 construct: also called heavy chain of kinesin-1
T2 sequence (looked up): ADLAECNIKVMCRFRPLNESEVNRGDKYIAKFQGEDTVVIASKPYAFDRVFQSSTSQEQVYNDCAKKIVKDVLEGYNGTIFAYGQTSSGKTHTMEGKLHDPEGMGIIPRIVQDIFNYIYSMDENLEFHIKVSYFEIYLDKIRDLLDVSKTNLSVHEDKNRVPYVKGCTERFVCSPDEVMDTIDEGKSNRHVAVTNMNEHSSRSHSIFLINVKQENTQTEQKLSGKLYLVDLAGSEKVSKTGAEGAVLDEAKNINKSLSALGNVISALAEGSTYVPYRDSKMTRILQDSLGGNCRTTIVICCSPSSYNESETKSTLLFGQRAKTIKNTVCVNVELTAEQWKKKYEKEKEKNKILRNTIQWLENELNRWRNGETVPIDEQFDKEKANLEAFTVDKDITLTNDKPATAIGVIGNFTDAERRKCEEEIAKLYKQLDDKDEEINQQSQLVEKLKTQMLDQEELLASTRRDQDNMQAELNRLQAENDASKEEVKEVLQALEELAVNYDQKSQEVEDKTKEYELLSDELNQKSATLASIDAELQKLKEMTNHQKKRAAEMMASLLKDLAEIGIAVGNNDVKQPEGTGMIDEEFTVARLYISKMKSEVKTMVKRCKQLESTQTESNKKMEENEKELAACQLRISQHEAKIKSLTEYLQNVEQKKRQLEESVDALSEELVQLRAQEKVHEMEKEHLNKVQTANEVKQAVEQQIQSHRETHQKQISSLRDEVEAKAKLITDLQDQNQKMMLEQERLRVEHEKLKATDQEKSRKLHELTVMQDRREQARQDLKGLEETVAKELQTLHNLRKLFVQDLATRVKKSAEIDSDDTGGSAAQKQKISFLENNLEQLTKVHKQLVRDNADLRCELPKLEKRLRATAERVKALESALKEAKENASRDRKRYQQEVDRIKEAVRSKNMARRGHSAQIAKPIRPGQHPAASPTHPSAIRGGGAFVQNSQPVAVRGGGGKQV

T1 sequence (O14576 2-645): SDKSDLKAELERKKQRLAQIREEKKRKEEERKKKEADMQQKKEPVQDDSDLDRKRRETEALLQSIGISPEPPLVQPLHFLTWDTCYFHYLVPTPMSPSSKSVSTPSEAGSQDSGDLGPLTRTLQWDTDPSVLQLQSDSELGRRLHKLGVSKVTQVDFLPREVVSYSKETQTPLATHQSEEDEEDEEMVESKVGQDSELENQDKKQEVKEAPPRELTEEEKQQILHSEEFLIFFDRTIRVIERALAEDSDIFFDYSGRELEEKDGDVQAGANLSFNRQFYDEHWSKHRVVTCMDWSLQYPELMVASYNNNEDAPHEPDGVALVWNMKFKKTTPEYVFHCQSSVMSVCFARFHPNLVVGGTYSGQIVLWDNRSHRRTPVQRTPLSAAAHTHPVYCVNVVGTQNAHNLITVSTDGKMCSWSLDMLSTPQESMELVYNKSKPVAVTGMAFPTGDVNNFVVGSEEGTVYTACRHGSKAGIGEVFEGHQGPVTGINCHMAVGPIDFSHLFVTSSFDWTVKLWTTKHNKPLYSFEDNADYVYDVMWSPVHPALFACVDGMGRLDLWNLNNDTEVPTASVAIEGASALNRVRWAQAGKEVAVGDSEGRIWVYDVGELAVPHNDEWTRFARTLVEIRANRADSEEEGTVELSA

Row | Binder | binding result [1] | binding result [2]
1 | p68 RNA helicase (endogenous, in SW480 cell extracts) (enzyme, Endogenous protein in lysates of SW480 cells; also called Human p68) MSGYSSDRDRGRDRGFGAPRFGGSRAGPLSGKKFGNPGEKLVKKKWNLDELPKFEKNFYQEHPDLARRTAQEVETYRRSKEITVRGHNCPKPVLNFYEANFPANVMDVIARQNFTEPTAIQAQGWPVALSGLDMVGVAQTGSGKTLSYLLPAIVHINHQPFLERGDGPICLVLAPTRELAQQVQQVAAEYCRACRLKSTCIYGGAPKGPQIRDLERGVEICIATPGRLIDFLECGKTNLRRTTYLVLDEADRMLDMGFEPQIRKIVDQIRPDRQTLMWSATWPKEVRQLAEDFLKDYIHINIGALELSANHNILQIVDVCHDVEKDEKLIRLMEEIMSEKENKTIVFVETKRRCDELTRKMRRDGWPAMGIHGDKSQQERDWVLNEFKHGKAPILIATDVASRGLDVEDVKFVINYDYPNSSEDYIHRIGRTARSTKTGTAYTFFTPNNIKQVSDLISVLREANQAINPKLLQLVEDRGSGRSRGRGGMKDDRRDRYSAGKRGGFNTFRDRENYDRGYSSLLKRDFGAKTQNGVYSAANYTNGSFGSNFVSAGIQTSFRTGNPTGTYQNGYDSTQQYGSNVPNMHNGMNQQAYAYPATAAAPMIGYPMPTGYSQ | no binding | no binding
2 | HA-tagged wild-type p68 (HA-p68), immunopurified from SW480 cell lysates (enzyme, One construct, purified from SW480 cells either with or without scratch-wound treatment; also called HA-p68 WT; WT; not shown: hemagglutinin (HA) tag from the pHM6 vector) MSGYSSDRDRGRDRGFGAPRFGGSRAGPLSGKKFGNPGEKLVKKKWNLDELPKFEKNFYQEHPDLARRTAQEVETYRRSKEITVRGHNCPKPVLNFYEANFPANVMDVIARQNFTEPTAIQAQGWPVALSGLDMVGVAQTGSGKTLSYLLPAIVHINHQPFLERGDGPICLVLAPTRELAQQVQQVAAEYCRACRLKSTCIYGGAPKGPQIRDLERGVEICIATPGRLIDFLECGKTNLRRTTYLVLDEADRMLDMGFEPQIRKIVDQIRPDRQTLMWSATWPKEVRQLAEDFLKDYIHINIGALELSANHNILQIVDVCHDVEKDEKLIRLMEEIMSEKENKTIVFVETKRRCDELTRKMRRDGWPAMGIHGDKSQQERDWVLNEFKHGKAPILIATDVASRGLDVEDVKFVINYDYPNSSEDYIHRIGRTARSTKTGTAYTFFTPNNIKQVSDLISVLREANQAINPKLLQLVEDRGSGRSRGRGGMKDDRRDRYSAGKRGGFNTFRDRENYDRGYSSLLKRDFGAKTQNGVYSAANYTNGSFGSNFVSAGIQTSFRTGNPTGTYQNGYDSTQQYGSNVPNMHNGMNQQAYAYPATAAAPMIGYPMPTGYSQ | no binding | no binding
